Patent US20250270737A1, “Antibodies That Bind GLP1R” (Twist Bioscience Corporation, priority 2019, published 2025)
Like-named read-outs stand apart in the source and are kept apart here.

B1: GLP1R-3: GLP1R antagonist IgG, CDR-H3 SEQ ID NO 2279, heavy chain SEQ ID NO 2320 (antibody)
heavy: QVQLVESGGGVVQPGRSLRLSCAASGFTFSSYGMHWVRQAPGKGLEWVSFISYDESNKYYADSVKGRFTISRDNSKNTLYLQMNSLRAEDTAVYYCAKHMSMQEGAVTGEGQAAKEFIAWLVKGRVRADLVGDAFDVWGQGTLVTVSSASTKGPSVFPLAPCSRSTSESTAALGCLVKDYFPEPVTVSWNSGALTSGVHTFPAVLQSSGLYSLSSVVTVPSSNFGTQTYTCNVDHKPSNTKVDKTVERKCCVECPPCPAPPVAGPSVFLFPPKPKDTLMISRTPEVTCVVVDVSHEDPEVQFNWYVDGVEVHNAKTKPREEQFNSTFRVVSVLTVVHQDWLNGKEYKCKVSNKGLPAPIEKTISKTKGQPREPQVYTLPPSREEMTKNQVSLTCLVKGFYPSDIAVEWESNGQPENNYKTTPPMLDSDGSFFLYSKLTVDKSRWQQGNVFSCSVMHEALHNHYTQKSLSLSPGK
light: QSVLTQPPSVSAAPGQKVTISCSGSSSNIADNYVSWYQQLPGTAPKLLIYDNNKRPSGIPDRFSGSKSGTSATLGITGLQTGDEADYYCGTWDNYLGAGVFGGGTKLTVLGQPKAAPSVTLFPPSSEELQANKATLVCLISDFYPGAVTVAWKADSSPVKAGVETTTPSKQSNNKYAASSYLSLTPEQWKSHRSYSCQVTHEGSTVEKTVAPTECS
B2: GLP1R-43-77: GLP1R VHH Fc binder variant from the VHH library for GLP1R (protein)
VHH: EVQLVESGGGLVQAGGSLRLSCAASGNTYSYKVMGWFRQAPGKEREFVGIIIRNGDTTYYADSVKGRFTISADNAKNTVYLQMNSLKPEDTAVYYCAASPKYMTAYERSYDWGQGTQVTVSS
modifications: Fc

Legend:
[1] = biological target: T1, GLP1R (Homo sapiens, UniProt P43220); assay: cAMP assay, allosteric effects on GLP1-7-36 peptide induced cAMP activity (Example 10); format: cell-based; conditions: FIGS. 10B-10J
Method: Cell binding was determined for the GLP1R variants. […] GLP1R-3, GLP1R-8, GLP1R-26, GLP1R-56, GLP1R-58 and GLP1R-10 were then analyzed for allosteric effects on GLP1-7-36 peptide in a cAMP assay. FIGS. […] show graphs of the GLP1R variants on inhibition of GLP1-7-36 peptide induced cAMP activity.

[2] = biological target: T1, GLP1R; assay: cAMP assay, allosteric/antagonist effects on Exendin-4 peptide induced cAMP activity (Example 10); format: cell-based
[3] = Thermal ramp stability (Tm and Tagg), UNcle platform; format: physicochemical
Description: The GLP1R IgGs were characterized for thermal ramp stability (Tm and Tagg). The UNcle platform was used to characterize the IgGs and the data is seen in Table 21.

[4] = biological target: T2, GLP2R (Homo sapiens, UniProt O95838); assay: Specificity of GLP1R versus GLP2R binding; conditions: data not shown
T2 sequence (O95838 1-553): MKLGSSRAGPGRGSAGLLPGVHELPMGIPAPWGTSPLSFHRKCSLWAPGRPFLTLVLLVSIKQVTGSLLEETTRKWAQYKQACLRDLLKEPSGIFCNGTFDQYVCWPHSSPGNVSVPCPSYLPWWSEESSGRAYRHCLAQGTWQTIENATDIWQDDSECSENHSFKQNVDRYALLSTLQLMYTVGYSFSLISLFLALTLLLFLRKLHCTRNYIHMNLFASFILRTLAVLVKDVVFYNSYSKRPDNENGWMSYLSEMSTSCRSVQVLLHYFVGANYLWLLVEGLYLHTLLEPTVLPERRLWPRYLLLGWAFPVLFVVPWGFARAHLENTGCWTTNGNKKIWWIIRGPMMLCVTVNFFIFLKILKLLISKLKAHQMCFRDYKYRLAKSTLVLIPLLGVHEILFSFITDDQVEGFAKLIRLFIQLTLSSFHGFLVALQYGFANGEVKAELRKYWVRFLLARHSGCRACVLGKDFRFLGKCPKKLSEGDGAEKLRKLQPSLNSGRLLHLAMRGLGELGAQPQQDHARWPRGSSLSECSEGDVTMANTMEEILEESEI

[5] = biological target: T3, mouse GLP1R (Mus musculus, UniProt O35659); assay: Binding on mouse GLP1R; conditions: IgG at 100 nM (GLP1R-59-243 at 50 nM); data not shown
T3 sequence (O35659 22-463): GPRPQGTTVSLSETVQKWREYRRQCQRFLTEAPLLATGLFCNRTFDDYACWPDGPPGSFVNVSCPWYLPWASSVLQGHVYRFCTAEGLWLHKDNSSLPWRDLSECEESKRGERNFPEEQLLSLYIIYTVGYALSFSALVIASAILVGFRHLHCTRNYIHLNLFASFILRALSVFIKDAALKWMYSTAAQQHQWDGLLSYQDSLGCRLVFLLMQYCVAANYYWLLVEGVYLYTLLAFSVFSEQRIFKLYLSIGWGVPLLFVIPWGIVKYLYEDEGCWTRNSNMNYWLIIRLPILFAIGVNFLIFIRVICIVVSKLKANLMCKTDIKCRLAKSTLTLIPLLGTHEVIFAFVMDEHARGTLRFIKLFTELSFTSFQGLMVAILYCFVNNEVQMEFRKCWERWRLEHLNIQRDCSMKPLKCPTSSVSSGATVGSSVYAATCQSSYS
Method: (§1) Binding of GLP1R-3, GLP1R-59-242, and GLPTR-43-8 on mouse, macaca, and human GLP1R was determined. […] Binding of GLP1R-59-2, GLP1R-59-241, and GLPTR-59-243 on mouse, macaca, and human GLP1R was determined.

[6] = system: macaca GLP1R; assay: Binding on macaca GLP1R; conditions: IgG at 100 nM (GLP1R-59-243 at 50 nM); data not shown
Method: as §1

[7] = biological target: T1, GLP1R; assay: Binding on human GLP1R; conditions: IgG at 100 nM (GLP1R-59-243 at 50 nM); data not shown
Method: as §1

[8] = system: human pancreatic precursor cells expressing endogenous GLP1R; assay: Binding to human pancreatic precursor cells expressing endogenous GLP1R
Method: as §1

[9] = system: C57BL/6J DIO mice; assay: Oral glucose tolerance test in mouse model of diet induced obesity; format: in vivo; conditions: HFD, 10 mg/kg SC, 2 g/kg oral glucose 60 minutes later, FIGS. 24C-24D
Method: The objective of this study was to evaluate the acute effects of a chimeric antibody GLP1R agonist and antagonist on glycemic control in a mouse model of diet induced obesity in C57BL/6J DIO mice. The test articles are seen below in Table 25.
For each test article, 7 different test article groups were generated as summarized in the following Table 26 with 8 animals per group.
On Day 3 (all animals) and Day 1 (Group 1-7), a non-fasting blood glucose was determined by tail snip. Approximately 5-10 μL of blood was collected. The second drop of blood from the animal was placed on a blood glucose test strip and analyzed using a hand-held glucometer (Abbott Alpha Trak).
After a non-fasting blood glucose measurement was made on the day of the procedure, the animals were weighed, tails marked, and the animals placed in clean cages without food. The animals were fasted for 4 hours and a fasting blood glucose measurement was determined.
The oral glucose tolerance test (OGTT) was administered to each animal 60 minutes later. The animals were dosed via oral gavage with 2 g/kg glucose (10 mL/kg). Blood glucose was determined via tail snip with the second drop of blood from the animal placed on a hand-held glucometer (Abbott Alpha Trak) at the following times relative to the glucose dose: 0 (just prior to glucose dose), 15, 30, 60, 90, and 120 minutes. […]

[10] = system: C57BL/6NHsd Mice; assay: Glucose Tolerance Test (GTT) in wild-type mice; format: in vivo, mouse; conditions: control mice exhibited a decrease; FIG. 25D
Method: 15 C57BL/6NHsd Mice were used and subjected to a Glucose Tolerance Test (GTT). The in vivo GTT test was performed on three groups of mice with 5 mice per group. […] Blood glucose measurements were recorded for each mouse at 15, 30, 60, 120, and 180 minutes after dextrose injection. […] A third group of mice were the control mice and were not treated. Data is seen for GLP1R-59-2 (agonist), GLP1R-3 (antagonist), and control in FIGS. 25A-25D.

[11] = biological target: T1, GLP1R
Method: All GLP1R scFv clones, as well as pGPCR-GLP1R-43 and pGPCR-GLP1R-44, were assayed for their potential effects on GLP1R signaling by performing cAMP assays (Eurofins DiscoverX Corporation). These assays involve CHO cells that were engineered to overexpress naturally Gαs-coupled wildtype GLP1R and were designed to detect changes in intracellular cAMP levels in response to agonist stimulation of the receptor. The technology involved in detecting cAMP levels was a no wash gain-of-signal competitive immunoassay based on Enzyme Fragment Complementation technology and produced a luminescent signal that was directly proportional to the amount of cAMP in the cells. Experiments were designed to determine agonist or allosteric activity of the IgGs.

[12] = biological target: T1, GLP1R; assay: VHH-Fc FACS binding on CHO-GLP1R cells; conditions: Sample E10.fcs/CHO-GLP1R
Method: A VHH library for GLP1R was developed similar to methods described in Example 14. Briefly, stable cell lines expressing GLP1R were generated, and target expression was confirmed by FACS. Cells expressing >80% of the target were then used for cell-based selections. Five rounds of cell-based selections were carried out against cells stably overexpressing the target of interest. 10^8 cells were used for each round of selection. Before selection on target expressing cells, phage from each round was first depleted on 10^8 CHO background cells. Stringency of selections was increased by increasing the number of washes in subsequent rounds of selections. The […] using trypsin, and the phage was amplified for the next round of panning. A total of 1000 clones from round 4 and round 5 are sequenced by NGS to identify unique clones for reformatting as VHH-Fc.
The data for variant GLP1R-43-77 is seen in FIGS. 22A-22B and Tables 23B-24.

[13] = system: CHO-parent; assay: VHH-Fc FACS binding on CHO-parent cells; conditions: Sample E10.fcs/CHO-parent

T1 sequence (P43220 24-463): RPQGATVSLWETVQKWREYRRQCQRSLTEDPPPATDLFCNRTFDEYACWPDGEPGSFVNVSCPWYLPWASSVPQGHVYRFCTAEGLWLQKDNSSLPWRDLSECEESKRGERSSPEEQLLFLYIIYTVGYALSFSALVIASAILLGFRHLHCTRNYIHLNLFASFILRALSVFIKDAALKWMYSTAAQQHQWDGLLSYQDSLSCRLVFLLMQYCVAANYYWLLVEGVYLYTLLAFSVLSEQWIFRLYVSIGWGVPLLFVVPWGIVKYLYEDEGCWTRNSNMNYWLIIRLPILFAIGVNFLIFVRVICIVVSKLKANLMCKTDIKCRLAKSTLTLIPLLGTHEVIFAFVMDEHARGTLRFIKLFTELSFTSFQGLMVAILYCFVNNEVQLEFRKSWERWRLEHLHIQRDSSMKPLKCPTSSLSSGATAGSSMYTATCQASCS

Row | Molecule | allosteric inhibition of GLP1-7-36 peptide induced cAMP activity [1] | EC50 ([2]; EC50 of Exendin-4 induced cAMP in the presence of the GLP1R variant) [nM] | fold-diff ([2]; fold difference of Exendin-4 EC50 with variant versus Exendin-4 alone) | Average Tagg 266 [3] [°C] | Average Tm2 [3] [°C] | Average Tml [3] [°C] | specificity of GLP1R versus GLP2R binding [4] | binding on mouse GLP1R [5] | binding on macaca GLP1R [6] | binding on human GLP1R [7] | binding to human pancreatic precursor cells expressing endogenous GLP1R [8] | glucose levels after glucose administration (OGTT) [9] | change of glucose in a 6 hour fast, pre-dosed animals [10] | EC50 ([11]; EC50 of GLP1 (7-36) cAMP response with GLP1R IgG (+100 nM)) [nM] | fold difference of EC50 ([11]; EC50 with 100 nM IgG versus no antibody (Table 23)) [fold] | inhibition of GLP1:GLP1R signaling ([11]; GLP1 (7-36) titration versus no antibody, FIG. 24A) | inhibition at higher concentrations ([11]; following stimulation with 0.05 nM GLP1 (7-36), FIG. 24B) | Median: RL1-A [12] | Median: RL1-A [13]
1 | B1 | allosteric inhibition | 0.63 | 5.4 | 68.4 | 73.5 | 66.7 | specific for GLP1R over GLP2R | found to bind | found to bind | found to bind | found to bound | sustained high glucose levels | did not show decreased glucose | 1.31 | 2.2 | inhibits GLP1:GLP1R signaling | complete inhibition | – | –
2 | B2 | – | – | – | – | – | – | – | – | – | – | – | – | – | – | – | – | – | 23439 | 237
